Test results as given in patent US20220064329A1 (Novo Nordisk, published 2022).

Tests used:
Assay in all cases: SPR, ratio of KD to KD of WT
[1] = target: T1, FVII(a) variant T185A (human, UniProt P08709 61-466)
T1 construct: hFVII alanine variant in cell culture supernatant
T1 sequence: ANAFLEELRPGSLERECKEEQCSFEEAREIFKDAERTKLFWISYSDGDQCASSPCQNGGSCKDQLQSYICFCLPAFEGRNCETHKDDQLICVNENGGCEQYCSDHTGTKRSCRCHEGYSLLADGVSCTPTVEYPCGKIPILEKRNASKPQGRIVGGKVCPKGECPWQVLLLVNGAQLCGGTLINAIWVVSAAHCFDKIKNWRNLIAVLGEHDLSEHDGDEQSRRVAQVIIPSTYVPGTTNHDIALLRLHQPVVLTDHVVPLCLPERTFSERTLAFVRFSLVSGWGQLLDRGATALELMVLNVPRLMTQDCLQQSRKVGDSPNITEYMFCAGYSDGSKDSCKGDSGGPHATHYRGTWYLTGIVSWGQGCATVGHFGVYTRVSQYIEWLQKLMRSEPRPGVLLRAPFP
Description: (§1) The running buffer was prepared by diluting 10-fold the 10×HBS-P buffer (supplied by GE Healthcare) and supplemented with 1 mg/ml BSA and 5 mM CaCl2 to give 10 mM HEPES, 150 mM NaCl, 0.05% v/v Polysorbate 20, pH 7.4, 5 mM CaCl2, 1 mg/ml bovine serum albumin (BSA). […] Regeneration of the chip was achieved using 10 mM HEPES, 150 mM NaCl, 20 mM EDTA, 0.05 v/v Polysorbate 20, pH 7.4. Binding data were analysed according to a 1:1 Kinetic model and steady state analysis using BiaEvaluation 4.1 supplied by the manufacturer (Biacore AB, Uppsala, Sweden). Wherever possible, ka, kd and KD values from 1:1 kinetic fitting model are reported. […] An amino acid residue is considered a hot-spot residue if substitution of that amino acid residue with alanine results in an affinity reduction of ten (10) fold or more relative to the wild type.

[2] = target: T2, FVII(a) variant S119A (human, UniProt P08709 61-466)
T2 construct: hFVII alanine variant in cell culture supernatant
T2 sequence: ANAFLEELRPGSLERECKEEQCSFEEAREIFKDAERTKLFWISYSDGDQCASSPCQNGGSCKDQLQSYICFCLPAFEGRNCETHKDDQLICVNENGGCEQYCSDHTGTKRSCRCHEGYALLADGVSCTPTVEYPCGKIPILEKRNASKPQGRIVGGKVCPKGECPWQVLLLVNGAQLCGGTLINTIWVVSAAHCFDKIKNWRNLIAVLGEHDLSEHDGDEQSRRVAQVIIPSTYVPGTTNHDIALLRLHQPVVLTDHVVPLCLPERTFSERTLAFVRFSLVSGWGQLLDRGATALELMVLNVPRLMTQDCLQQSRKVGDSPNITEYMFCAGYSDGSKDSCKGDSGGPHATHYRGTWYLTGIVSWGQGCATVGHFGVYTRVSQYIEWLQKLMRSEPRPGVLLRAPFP
Description: as §1

[3] = target: T3, FVII(a) variant E394A (human, UniProt P08709 61-466)
T3 construct: hFVII alanine variant in cell culture supernatant
T3 sequence: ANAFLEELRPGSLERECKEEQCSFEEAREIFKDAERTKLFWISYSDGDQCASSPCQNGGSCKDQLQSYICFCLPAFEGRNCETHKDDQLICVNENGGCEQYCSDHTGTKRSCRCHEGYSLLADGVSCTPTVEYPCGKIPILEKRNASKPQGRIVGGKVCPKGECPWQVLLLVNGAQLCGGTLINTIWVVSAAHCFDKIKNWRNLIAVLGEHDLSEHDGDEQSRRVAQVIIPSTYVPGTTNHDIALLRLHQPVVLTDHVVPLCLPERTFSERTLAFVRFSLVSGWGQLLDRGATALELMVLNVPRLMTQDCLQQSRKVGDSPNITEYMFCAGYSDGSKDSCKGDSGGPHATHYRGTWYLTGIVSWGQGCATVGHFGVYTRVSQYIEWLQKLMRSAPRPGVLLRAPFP
Description: as §1

[4] = target: T4, FVII(a) variant M391A (human, UniProt P08709 61-466)
T4 construct: hFVII alanine variant in cell culture supernatant
T4 sequence: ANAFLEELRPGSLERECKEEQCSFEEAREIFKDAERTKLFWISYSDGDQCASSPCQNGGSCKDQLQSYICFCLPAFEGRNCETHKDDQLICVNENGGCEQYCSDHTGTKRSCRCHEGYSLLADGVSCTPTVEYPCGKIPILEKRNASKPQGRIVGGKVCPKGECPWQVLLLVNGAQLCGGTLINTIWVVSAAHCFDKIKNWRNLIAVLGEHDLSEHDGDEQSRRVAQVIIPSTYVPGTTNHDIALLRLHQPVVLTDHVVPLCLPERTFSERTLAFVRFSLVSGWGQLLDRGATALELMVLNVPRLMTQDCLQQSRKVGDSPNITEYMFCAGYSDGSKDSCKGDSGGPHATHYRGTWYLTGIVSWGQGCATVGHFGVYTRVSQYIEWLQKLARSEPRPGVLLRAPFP
Description: as §1

[5] = target: T5, FVII(a) variant E265A (human, UniProt P08709 61-466)
T5 construct: hFVII alanine variant in cell culture supernatant
T5 sequence: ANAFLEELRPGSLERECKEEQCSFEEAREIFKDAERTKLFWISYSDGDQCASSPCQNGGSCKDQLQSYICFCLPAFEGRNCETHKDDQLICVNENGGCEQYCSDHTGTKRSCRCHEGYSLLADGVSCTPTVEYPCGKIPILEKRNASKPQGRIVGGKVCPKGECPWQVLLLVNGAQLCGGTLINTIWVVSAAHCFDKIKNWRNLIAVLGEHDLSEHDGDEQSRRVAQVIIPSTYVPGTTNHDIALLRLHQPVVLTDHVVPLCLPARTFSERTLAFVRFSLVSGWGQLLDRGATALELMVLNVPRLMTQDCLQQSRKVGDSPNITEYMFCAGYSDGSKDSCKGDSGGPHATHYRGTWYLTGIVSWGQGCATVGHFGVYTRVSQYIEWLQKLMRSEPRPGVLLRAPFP
Description: as §1

Fold diff (Variant/WT) [1]: 3.3 fold
Fold diff (Variant/WT) [2]: 1 fold
Fold diff (Variant/WT) [3]: 2.6 fold
Fold diff (Variant/WT) [4]: 0.8 fold
Fold diff (Variant/WT) [5]: 3.2 fold
B1: mAb0842(OA) (antibody, human IgG4 S228P, kappa)
heavy: QVQLQESGPGLVKPSQTLSLTCTVSGYSISSDSAWSWIRQPPGKGLEWIGYIQYSGSTNYNPSLKSRVTISRDTSKNQFSLKLSSVTAADTAVYYCARSVNYYGNSFAVGYWGQGTLVTVSSASTKGPSVFPLAPCSRSTSESTAALGCLVKDYFPEPVTVSWNSGALTSGVHTFPAVLQSSGLYSLSSVVTVPSSSLGTKTYTCNVDHKPSNTKVDKRVESKYGPPCPPCPAPEFLGGPSVFLFPPKPKDTLMISRTPEVTCVVVDVSQEDPEVQFNWYVDGVEVHNAKTKPREEQFNSTYRVVSVLTVLHQDWLNGKEYKCKVSNKGLPSSIEKTISKAKGQPREPQVYTLPPSQEEMTKNQVSLSCAVKGFYPSDIAVEWESNGQPENNYKTTPPVLDSDGSFFLVSRLTVDKSRWQEGNVFSCSVMHEALHNHYTQKSLSLSLGK
light: EIVLTQSPATLSLSPGERATLSCRASQGISDYLHWYQQKPGEAPRLLIKYTSQPATGIPARFSGSGSGTDFTLTISSLEPEDFAVYYCQNGHSFPLTFGQGTKLEIKRTVAAPSVFIFPPSDEQLKSGTASVVCLLNNFYPREAKVQWKVDNALQSGNSQESVTEQDSKDSTYSLSSTLTLSKADYEKHKVYACEVTHQGLSSPVTKSFNRGEC
chain: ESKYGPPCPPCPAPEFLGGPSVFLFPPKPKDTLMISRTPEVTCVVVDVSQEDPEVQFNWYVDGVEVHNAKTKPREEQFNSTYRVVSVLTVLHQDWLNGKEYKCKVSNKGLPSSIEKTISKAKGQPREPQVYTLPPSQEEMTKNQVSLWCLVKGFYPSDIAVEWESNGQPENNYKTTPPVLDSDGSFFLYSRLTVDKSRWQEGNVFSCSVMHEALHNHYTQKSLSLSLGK
notes: also called monovalent humanized 11F2 antibody; one-armed anti-FVII(a) antibody
